Test results as given in paper PMC2174365.
Read-outs that look alike come from different tables or passages of the source.

Legend:
[1] = target: microtubules (taxol-stabilized; polymer of alpha- and beta-tubulin)
[2] = target: sea urchin sperm flagellar axonemes (sea urchin); assay: single-molecule fluorescence motility assay
[3] = target: sea urchin sperm flagellar axonemes (sea urchin); assay: single-molecule fluorescence motility assay; remark: listed apart in the source
[4] = target: sea urchin sperm flagellar axonemes (sea urchin); assay: single-molecule fluorescence motility assay; remark: listed apart in the source
[5] = target: sea urchin sperm flagellar axonemes (sea urchin); assay: optical trapping bead assay

Row | Substance | Km(MT) of the microtubule-stimulated ATPase, NEM-modified control [1] | Km(MT) of the microtubule-stimulated ATPase, with 200 μM DTNB [1] | Km(MT) of the microtubule-stimulated ATPase, without DTNB [1] | further results
1 | Cys330/Cys4 Cys-light K560-GFP (neck linker mutant Ser330Cys/Leu4Cys) (from UniProt P33176 1-560) (domain or fragment) | 0.45 μM tubulin | 2.35 μM tubulin | 0.57 μM tubulin | 
2 | Cys334/Cys222 Cys-light K560-GFP (neck linker mutant Glu334Cys/Lys222Cys) (from UniProt P33176 1-560) (domain or fragment) | 1.51 μM tubulin | 2.36 μM tubulin | 0.62 μM tubulin | 
3 | Cys337 Cys-light K560-GFP (neck coiled-coil mutant Ala337Cys) (from UniProt P33176 1-560) (domain or fragment) |  |  |  | association time [2]: 3.7 s
4 | Cys337/Cys344 Cys-light K560-GFP (neck coiled-coil double mutant Ala337Cys/Tyr344Cys) (from UniProt P33176 1-560) (domain or fragment) |  |  |  | association time [3]: 3.8 s; association time [4]: 2.5 s
5 | Cys344 Cys-light K560-GFP (neck coiled-coil mutant Tyr344Cys) (from UniProt P33176 1-560) (domain or fragment) |  |  |  | frequency of movement/binding [2]: 2 /min/μm/nM; frequency of movement/binding [3]: 2 /min/μm/nM; fold change of the dissociation rate under load (with DTNB against without DTNB) [5]: 1.2 fold
